Molecular target: recombinant human CA125 (rhCA125) (human) (UniProt Q8WXI7)

adhesion of GFP-MSLN transfected HEK 293 T cells on an OVCAR-3 (MSLN+, MUC16+) monolayer in the presence of 1 uM Nb A1; percent of adhesion blocked: > 90%
Substance: recombinant human mesothelin Fc fusion (hrMSLN-Fc) (from UniProt Q13421 296-598)
